The target in the test is human CD3epsilon/delta-Fc fusion protein (heterodimer of CD3epsilon and CD3delta extracellular domains fused to human IgG Fc) (human) (UniProt P04234). Kind of test: Biacore. For orientation: Surface plasmon resonance follows binding to a sensor surface in real time, without labels.

Our source for the Kd values is patent US20190241657A1.

Chain of human CD3epsilon/delta-Fc fusion protein (heterodimer of CD3epsilon and CD3delta extracellular domains fused to human IgG Fc) (human) (chain, as listed by the source mutant, chain 1 of 2): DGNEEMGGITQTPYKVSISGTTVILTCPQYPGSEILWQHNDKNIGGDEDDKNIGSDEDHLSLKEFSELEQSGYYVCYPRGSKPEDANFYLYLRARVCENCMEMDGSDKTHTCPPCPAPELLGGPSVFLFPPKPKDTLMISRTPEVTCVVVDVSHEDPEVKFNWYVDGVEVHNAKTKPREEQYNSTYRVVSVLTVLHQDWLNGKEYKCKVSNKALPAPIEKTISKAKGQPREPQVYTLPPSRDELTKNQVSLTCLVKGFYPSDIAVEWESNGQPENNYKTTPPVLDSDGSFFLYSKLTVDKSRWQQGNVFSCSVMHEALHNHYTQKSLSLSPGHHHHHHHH
Chain of human CD3epsilon/delta-Fc fusion protein (heterodimer of CD3epsilon and CD3delta extracellular domains fused to human IgG Fc) (human) (P04234 22-105, stated change not applied, chain 2 of 2): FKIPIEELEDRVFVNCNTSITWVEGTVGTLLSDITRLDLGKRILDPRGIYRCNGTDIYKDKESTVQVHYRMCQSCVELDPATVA

On to “Single chain antibody DART format MGD006 (CD123xCD3 bi-specific diabody) (bispecific antibody)”, for which the Kd – broadly, the equilibrium constant for the complex coming apart – came out at 9 nM.
